Data as given in patent US20050170442A1.

Target: Biotin-labeled fluorescent peptide …(S*)PDK-(5-FAM)
Assay: cell-based or functional assay

| EC50 of enzyme titration (TR-FRET ratio, 400 nM substrate, 200 µM ATP) [µg/mL] | Substance |
| --- | --- |
| 0.245 | GSK3β, rHuman (from UniProt P49841 1-420) (enzyme) |
| 0.025 | GSK3α, rHuman (from UniProt P49840 1-483) (enzyme) |
